The results in this text go back to a protein production outcome set (Wang et al. 2014).
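Note: failed if final PepcDB status was selected cloned or expressed and not failed if soluble or beyond.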

A short description of the series: label from the status in PepcDB records.
For the sequence “MRREKTMDTLIRSIMIKSKRKMDAKVAQFGLTTQQARVLGFLNDNAANEIIQKDLQRIFQTRGASITSLIQGLEKKQLISRKPSLRDGREKVVTLTKEGKDIVDEFNASFPREDDKAKKILSADEYKTFIELLSKIDDQTD”, the protein production result is given as “failed”.

Consider “MVLSKTASKSDDSIHSTFASRYVRNSISRFEIPKNSIPKEAAYQIINDELKFDGNPRLNLASFVTTWMEPECDKLMMESINKNNVEMDQYPVTTDLQNRCVNMIARLFNAPLGDGEAAIGVGTVGSSEAVMLAGLAFKRQWQNKRKALGLPYDRPNIVTGANIQVCLEKFARYFEVELKEVKLREGYYVMDPDKAVEMVDENTICVVAILGSTLTGEFEDVKLLNDLLVEKNKKTGWDTPIHVDAASGGFIAPFLYPDLEWDFRLPLVKSINVSGHKYGLVYAGIGWVVWRTKTDLPDELIFHINYLGADQPTFTLNFSKGSSQVIAQYYQLIRLGFEGYRNVMDNCRENMMVLRQGLEKTGRFNIVSKENGVPLVAFSLKDSSRHNEFEVAEMLRRFGWIVPAYTMPADAQHVTVLRVVIREDFSRTLAERLVADFEKVLHELDTLPARVHAKMASGKVNGVKKTPEETQREVTAYWKKFVDTKTDKNGVPLVASITNQ”, for which the protein production entry is recorded as “failed”.

For the sequence “MVEENQLQSLKDVAKQAPVHRKLDIQEWKTAEGAKVLFVEAHELPMFDLRLTFAAGSSQDAGTPGLSMLTNAMLNEGVPGKDTTAIAAGFEDLGASFSNGSYRDMAVAGLRSLSEADKRTQALKLFEQVIGQPTFPEDALARIKNQVLAGFEYQKQNPGKLAGLELFKRLYGEHPYAHSSDGDEKSVPTISREQLQAFHKKAYAAGNVVIALVGDLSRQEAEAIAAEVSKALPQGPALAKTVQPETPKPGLTHIDFPSEQTHLMLAQLGIDRQDPDYAALYLGNQILGGGGFGTRLMDQVREKRGLTYGIYSGFTAMQARGPFMINFQTRAELSEGALKLVQDIVRDYLANGPTQKELDDAKRELAGSFPLSTASNADIVGQLGAIGFYGLPLDYLESFLKQVEGLSVEQVRTAMAKHLDADAFVIVSAGLEHHHHHH”, the protein production entry is listed as “not failed”.

On to “MFVHTKTKKKRKWQRKVFLLLLLFLLPIVSVLAFIVLFIGGGTAESHDVEATTGGVKLSAKQFADKTKLGISEEEAKNALAFADRLMSRHHFTAQATAGVLAVGFRESGFDVKAVNNSGGVAGFFQWSGWGSSVNGDRWKVASKRELTLEVEVDLMSTELDGRYADVVKKVGSATDEKQAAKDWSQYYEGVAVSDGQTKADKIESWATTICEALKSGGTNYAKVNNTGTSSTAIPQGWENISAFDGHAYEGSENYPQGQCTWYVYNRAKQLGVSFSPYMGNGGQWYQVQGYHSSHTPKAHTALSFVNGQAGSDPTYGHVAFVEAVKDDGSILISEMNVYGQPAMTVAYRTFDAETAKQFWYVEGK”, for which the protein production result is given as “failed”.

As to “ASISEVAAITGLTQDTLRWYEREGMIPTIARGSDRRRRYSERDVRLIELLVKLRTTGMPTSDMQRFAVLLAGGAETHERRLALLLAHRERILAQQARLDDALAALDTKVDHYR”, the protein production result is recorded as “failed”.

For the sequence “MSYSTFALCHWARDRQRGRKTVADMVHRMTQATARVIGLEDRGELAVGKRADINVIDLAQLALRPPQVCHDLPAGGRRLIQRATGYSLTMLAGEIVLRDDEPLEHHHHHH”, the protein production entry is listed as “not failed”.

Consider “MNYRLLVFDFDGTLADSEASIMGAMQLVAKEFGLSEVDCVKARPTIGLSLLRTIEIGLGLEAGDAAAAVELYRRYYKEIAFDSTCLFPGVKETQEQLRQNSLLAIASSKSRQGLLSRMRQFGIVDHFSFIAGAQDISGL”, for which the protein production entry is “failed”.

On to “MERDGCAGGGSRGGEGGRAPREGPAGNGRDRGRSHAAEAPGDPQAAASLLAPMDVGEEPLEKAARARTAKDPNTYKVLSLVLSVCVLTTILGCIFGLKPSCAKEVKSCKGRCFERTFGNCRCDAACVELGNCCLDYQETCIEPEHIWTCNKFRCGEKRLTRSLCACSDDCKDKGDCCINYSSVCQGEKSWVEEPCESINEPQCPAGFETPPTLLFSLDGFRAEYLHTWGGLLPVISKLKKCGTYTKNMRPVYPTKTFPNHYSIVTGLYPESHGIIDNKMYDPKMNASFSLKSKEKFNPEWYKGEPIWVTAKYQGLKSGTFFWPGSDVEINGIFPDIYKMYNGSVPFEERILAVLQWLQLPKDERPHFYTLYLEEPDSSGHSYGPVSSEVIKALQRVDGMVGMLMDGLKELNLHRCLNLILISDHGMEQGSCKKYIYLNKYLGDVKNIKVIYGPAARLRPSDVPDKYYSFNYEGIARNLSCREPNQHFKPYLKHFLPKRLHFAKSDRIEPLTFYLDPQWQLALNPSERKYCGSGFHGSDNVFSNMQALFVGYGPGFKHGIEADTFENIEVYNLMCDLLNLTPAPNNGTHGSLNHLLKNPVYTPKHPKEVHPLVQCPFTRNPRDNLGCSCNPSILPIEDFQTQFNLTVAEEKIIKHETLPYGRPRVLQKENTICLLSQHQFMSGYSQDILMPLWTSYTVDRNDSFSTEDFSNCLYQDFRIPLSPVHKCSFYKNNTKVSYGFLSPPQLNKNSSGIYSEALLTTNIVPMYQSFQVIWRYFHDTLLRKYAEERNGVNVVSGPVFDFDYDGRCDSLENLRQKRRVIRNQEILIPTHFFIVLTSCKDTSQTPLHCENLDTLAFILPHRTDNSESCVHGKHDSSWVEELLMLHRARITDVEHITGLSFYQQRKEPVSDILKLKTHLPTFSQED”, for which the protein production result is listed as “failed”.

In the case of “MSSKRPPAPPPPIPGFKYISLLGSGGFSDVYLYEQDRPRRKVAVKVLLSDLKTEGARRRFESEANLMAQLSSHPYIVTIFEAEITETGHSYLAMEYCSRPSLDVRYRRQRFSVDEVLAVGIQVASAVETAHRAGIVHRDIKPANILVTDYNRPALTDFGISGTIGADTEDDAGMSIPWSPPEQFRGGAVDGVPVDIWALGATLYTLLAGRSPFVLPGQDNSQRELISRITNSPLPRLGRADVPESLELVLATSMAKSPESRYSSAHAFALALQRIQAELNLSVTPFEVLEEPGHGDDQHPDDNFEETRVRSIASIDPDASGTATTGSAPTFPARTFPTTATGASGQPTQPQSLPTSRPQPTNPPQTVQSHAGSSAPPQFHAPAPGSYTAPGSYTAPGTYTAPGTYRASGSHNATAEPDTAESTVLRGWQPSRPQDDLGATVSRSNSPAGASPATREDARPADHSKRNLWLAATGAAVLVVAIVVGVVLGAQAQPKVVPTEAASKPPADALGDGSVPDVEGLIGVKDPEKPDFADFRWTNPQPQSGDMYMWRYRTALIPEGDYEAVTEPHARPYFGGEKQLCIQVIIVRRDGTSSPGDTGSIACVDQ”, the protein production entry is reported as “failed”.

As to “MVLVLDFGSQYTRLIARRLRELRAFSLILPGDAPLEEVLKHRPQALILSGGPRSVFDPDAPRPDPRLFSSGLPLLGICYGMQLLAQELGGRVERAGRAEYGKALLTRHEGPLFRGLEGEVQVWMSHQDAVTAPPPGWRVVAETEENPVAAIASPDGRAYGVQFHPEVAHTPKGMQILENFLELAGVKRDWTPEHVLEELLREVRERAGKDRVLLAVSGGVDSSTLALLLAKAGVDHLAVFVDHGLLRLGEREEVEGALRALGVNLLVVDAKERFLKALKGVEDPEEKRKIIGREFVAAFSQVARERGPFRFLAQGTLYPDVIESAGGHGAAKIKSHHNVGGLPEDLEFELLEPFRLLFKDEVRELALLLGLPDTLRLRHPFPGPGLAVRVLGEVTEERLEILRRADDIFTSLLREWGLYEKVAQALAVLTPVRSVGVAGDERKYGYVLALRAVTTEDFMTADWARLPLEFLDEAARRITRRVPEIGRVVYDLTSKPPATIEWE”, the protein production result is listed as “not failed”.

Regarding “TSTFYELFPKTFPKKLPIWTIDQSRLRKEYRQLQAQHHPDMAQQGSEQSSTLNQAYHTLKDPLRRSQYMLKLLRNI”, the protein production entry was “failed”.

With “MQTSFCVLVSIIERMPTWNDIKVRNPQHSHNYAKRWENLEAEGNDINGEARLIDALVQRGSKILDAGCGQGRVGGYLSARGHIVTGIDIDDYLISEAEKKFPSATWHVGDLGSESIPDQGFDIAVCAGNVITFIEPDKQEAALAHIFEALRPNGRCIIGFGAGRGYVFPQFFEDARNVGFVIENNFESWGLNPLTNRSQFLVAFLRKPELEHHHHHH”, the protein production result is reported as “failed”.
